Results published in US10342879B2, “Carrier nanoparticles and related compositions, methods and systems” (California Institute of Technology, priority 2008, dated 2019).

Experiment: Effective diameter by dynamic light scattering in double distilled water
Format: physicochemical
Settings: DLS
Protocol: 3 successive runs of 1 min each were subsequently recorded and averaged. […] 10 successive automated runs at target residuals of 0.012 were then performed and results averaged (FIG. 14).

Poly(Mucic Acid-DiCys-PEG)-CPT conjugate
share of the total particle population in the predominant distribution: 60%
